FireProtDB (doi:10.1016/j.bbapap.2007.05.016)
Values joined by “and” are separate entries in the source; they are usually repeats but may differ in a detail not shown here. Identical values can stand only once.

Details: Streptomyces sp. (strain N174), Thermal, Fluorescence, reversible: No, whole UniProt chain shown

B1: Chitosanase wild type, P33665 (protein)
chain: MHSQHRTARIALAVVLTAIPASLATAGVGYASTQASTAVKAGAGLDDPHKKEIAMELVSSAENSSLDWKAQYKYIEDIGDGRGYTGGIIGFCSGTGDMLELVQHYTDLEPGNILAKYLPALKKVNGSASHSGLGTPFTKDWATAAKDTVFQQAQNDERDRVYFDPAVSQAKADGLRALGQFAYYDAIVMHGPGNDPTSFGGIRKTAMKKARTPAQGGDETTYLNAFLDARKAAMLTEAAHDDTSRVDTEQRVFLKAGNLDLNPPLKWKTYGDPYVINS
Tm (pH 4.5, Sodium acetate 50 mM): 53.5 °C and 54 °C
Tm (pH 4.5, Sodium acetate 150 mM): 44.4 °C
Tm (pH 4.75, Sodium phosphate 50 mM): 53.7 °C
Tm (pH 7, Sodium phosphate 50 mM): 41.3 °C
